The values that follow come from publication PMC5869024.

Assay [1] concerns the target ND-CXCR1(1–38) (UniProt P25024). The assay is described as follows: ITC. On the technique in general: Isothermal titration calorimetry measures the heat released or taken up as one component is titrated into another.
Assay [2] addresses 1TM-CXCR1(1–72) reconstituted in nanodiscs (UniProt P25024). The assay is described as follows: ITC.
The target of assay [3] is ND-CXCR1(1–38) (UniProt P25024). The assay is described as follows: ITC. The source holds these as a separate data set.
Sequence of ND-CXCR1(1–38) (P25024 1-38 C30S): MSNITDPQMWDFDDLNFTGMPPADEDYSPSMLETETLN
The target of assay [4] is CXCR1 extracellular loop peptide two linked extracellular loops (Homo sapiens) (UniProt P25024). The note with it: cited from earlier work.
Sequence of CXCR1 extracellular loop peptide two linked extracellular loops (Homo sapiens) (P25024 whole entry): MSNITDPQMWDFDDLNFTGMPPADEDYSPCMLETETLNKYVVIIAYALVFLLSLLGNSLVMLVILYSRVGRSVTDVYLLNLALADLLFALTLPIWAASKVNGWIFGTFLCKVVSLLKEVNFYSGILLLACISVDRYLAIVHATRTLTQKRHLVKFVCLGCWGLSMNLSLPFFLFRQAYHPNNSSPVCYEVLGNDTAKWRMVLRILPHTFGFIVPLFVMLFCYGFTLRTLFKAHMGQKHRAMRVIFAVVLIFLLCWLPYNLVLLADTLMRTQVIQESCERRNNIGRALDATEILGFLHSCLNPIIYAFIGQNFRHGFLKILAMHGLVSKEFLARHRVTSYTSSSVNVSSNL

Read-outs that look alike come from different tables or passages of the source.

Sequence of 1TM-CXCR1(1–72) reconstituted in nanodiscs (P25024 1-72 C30S): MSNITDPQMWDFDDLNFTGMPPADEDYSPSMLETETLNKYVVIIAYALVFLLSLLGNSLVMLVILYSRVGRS
Sequence of IL-8 (P10145 28-99): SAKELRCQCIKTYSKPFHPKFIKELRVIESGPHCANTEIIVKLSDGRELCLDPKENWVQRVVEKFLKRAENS

One may read the Kd as the concentration at which binding is half-saturated. Regarding “monomeric Interleukin-8 IL-8(1–66) (ligand)”, the Kd in the assay with ND-CXCR1(1–38) [1] amounted to 3.2 µM; in assay [2], 12.5 µM; with ND-CXCR1(1–38) [3], 3.5 µM. Besides, the dH in assay [2] is -3.1 kcal/mol; in the assay with ND-CXCR1(1–38) [3], -3.2 kcal/mol.
On to IL-8 (from UniProt P10145), for which the Kd in assay [4] is 0.5 µM.
